# Source: the supplement of paper PMC9170038
# Tested on: MS2 coat protein
# Assay: apparent KD of MS2 coat protein; higher = weaker reporter binding
# Conditions: Eterna round: R107
# Method: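 RNA-MaP round R107: designed RNA switches with theophylline, tryptophan, arginine or FMN aptamers are transcribed on-chip within common flanks. They are titrated with SNAP-549-labelled MS2 coat protein in RNA-MaP buffer (100 mM Tris pH 7.5, 80 mM KCl, 4 mM MgCl2), without ligand or with the indicated ligand. Median apparent KD per design.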
# [1] = input ligand: theophylline 20 uM
# [2] = input ligand: theophylline 2 mM
# [3] = input ligand: tryptophan 2.4 mM
Sequence,apparent KD of MS2 coat protein (input ligand: arginine 13.2 mM),apparent KD of MS2 coat protein [1],apparent KD of MS2 coat protein [2],apparent KD of MS2 coat protein (input ligand: none),apparent KD of MS2 coat protein [3]
CGAAUAUAGACGGCCGCCACUCUACAAACAUGAGGAUCACCCAUGUUCACAUAGUGGAAACACAUGAGGACCGGGUCAUAGGCUU [#19 Same State - Tryptophan B],23.2 nM,26.9 nM,23.9 nM,–,–
GCGGUACGUACUGAUACCAGAGACAUGAGGAUCACCCAUGUCCCAUGGUCAUGCCUCAGACUCCCUUGGCAGCAGGAUAAGUGCG [Exclusion Theophylline B GF3],14.3 nM,17.1 nM,40.4 nM,13.9 nM,12.8 nM
CUGUACAUCUCGGCCGCCACUGACAUGAGGAUCACCCAUGUAGUACCUGAGAUAGACAUAUCUUACAGGACCGGGAGGUGUGCAG [SSTryp B #31],12.2 nM,13.5 nM,9.35 nM,10.2 nM,10.6 nM
AGCCACUCGAGUGAUCCUCACGAGUGGCAACGAGGACCGGUACGGCCGCCACUCGAAUAACAUGAGGAUCACCCAUGUUUAUAAU [#01 Tryptophan A - Same State],51.1 nM,176 nM,258 nM,–,–
CUCAUCCACGCGGCCGCCACUACUUGUAGGUGUGGGUGUGUUGUGUUACAUGAGGAUCACCCAUGUAGGACCGGGCGUGGAUGAG [Whale],53.9 nM,85.6 nM,83.8 nM,62.7 nM,213 nM
AGCGCAUCCGUAUAGGAUGCGCUCCAUGAAGGAGCGCGGGAAACCGCAGGUAGGUCGCGUGACAUGAGGAUCACCCAUGUGUAUU [#17 Same State - Arginine A],16.9 nM,27.7 nM,22.8 nM,20 nM,20.9 nM
UGUAUGUGAUCUGAUACCAGAGUGACGCGAAAGCGAAACCUGAGGAUCACCCUGGUAAAACUCCCUUGGCAGCAGAUCGCAUACU,76 nM,35.3 nM,23.9 nM,49.5 nM,68.3 nM
GCUGCCGUCGGUGAAAACUCCCAUGCAGAUACCAGCGCAUUCCGCCGCCCUUGGCAGCUGCAUACAUGAGGAUCACCCAUGUGUU [theeternabot_exclusion_MS2_Theo_A_48],41.4 nM,161 nM,–,–,77.3 nM
UACCGAUGAAGAAGGAGCGUACGUGGUUCACAUGAGGAUCACCCAUGUGCUUAUUGCUAGGUACAGGUAGGUCGCUUCAUCGGUA [SSAB NP+V+V2 #21],16.5 nM,21 nM,17.1 nM,15.5 nM,15.8 nM
GCGUUCUCUGCGGCCGCCACUCAAGGAGCUACAUAGCUCCUAGACAUGAGGAUCACCCAUGUGGCGAGGACCGGGUAGAUCCUUA [Same State Typptophan B GF7],76.3 nM,359 nM,337 nM,–,–
GCAUCCUAGUCGGCCGCCACUGCAUCACCAGUGGCAGGUGAUCAACAUGAGGAUCACCCAUGUAGCAGGACCGGGACUAGGAUGC [(Trp1)-(TM)''-(TM)'-(Ms2)-(Trp2)_Design4],113 nM,163 nM,168 nM,–,–
AAAACACAUGAGGAUCACCCAUGUCGUGAUACCAGUCAACAUGAGGACCCUUGGCAGCAUAAAAUGGGUAACAUGAGGAUCACCC [AstrosEXyTheA#5],65.3 nM,118 nM,–,–,90.9 nM
CCUAUGCAGUCGGCCGCCACUGAUAACGUUAUCGUUACCUCAGAAACAUGAGGAUCACCCAUGUACAGGACCGGGACUGUAUAGG [Ex Tryptophan B 19],14.4 nM,14.6 nM,13.2 nM,–,–
GCUAGGUCAUCGGCCGCCACUAACGACGGUUCCAACAUGAGGAUCACCCAUGUGCCACAUGCGCAUAGGACCGGGAUGACCUAGC [SSTB NP+V+V2 #5],31.1 nM,51.2 nM,42.7 nM,–,–
AUUCAUAAUUGGGUAAAUGGAUAGAGUGAUACCAGUCAUAUACAUGACCCUUGGCAGCACAAGGACAUGAGGAUCACCCAUGUCA [Same State Theophylline A GF22],21.1 nM,26.7 nM,–,–,28.9 nM
UACAUGAGGAUCACCCAUGUAUGAAUGGAUACCAGCGACAAUGGGCGCCCUUGGCAGCUAGUGGAUGAAGGGUGGGUACAAUACU [Exclusion Theophyline A GF4],11.4 nM,17.7 nM,13.1 nM,13.4 nM,11.4 nM
ACGUCACGUUUACUCGUGGUUUCGAUCGAUACCAGUAGCGAGAGUUACCCUUGGCAGCGACAUGAGGAUCACCCAUGUACGAAGA [XTheo A #25],10.8 nM,14.5 nM,–,–,12 nM
CACAGUGCGAAUUUGAAAUCGCACGAUCCUCGAGGACCGGUACGGCCGCCACUCGCGCGGGUCGUACAUGAGGAUCACCCAUGUC [Beertele],44 nM,600 nM,907 nM,–,–
CGAUAUAUACGAAGGAGCGACAUGAGGAUCACCCAUGUCUACCACGUCGAAAGACGCUCAUGUCAGGUAGGUCGCGUAUAUAUCG [Astros-Eli-mod9],56.7 nM,123 nM,239 nM,137 nM,117 nM

Sequence,apparent KD of MS2 coat protein (input ligand: arginine 13.2 mM),apparent KD of MS2 coat protein [1],apparent KD of MS2 coat protein [2],apparent KD of MS2 coat protein (input ligand: none),apparent KD of MS2 coat protein [3]
AUCUACGUGGGUGAUACCAGCUGGUUAGUACACAUGAGGAUCACCCAUGUGCAGGCAGGCAGCCCUUGGCAGCACCGCAGUGGCU [theeternabot_sameState_MS2_Theo_B_36],42.8 nM,221 nM,–,–,60.9 nM
AAGUGGCACGGAAGGAGCGAGUUUACCUAAAUAACAUGAGGAUCACCCAUGUAUAAUGGGACUCAGGUAGGUCGCCGUUGUCACU [Same State Arginine B GF 23],22.9 nM,43.1 nM,28.8 nM,29.3 nM,33 nM
ACACGAGGAUCACCCGUGUCAUGUGGUGAUACCAGUUUACAUGAGAACCCUUGGCAGCAUAACAACAUGAGGAUCACCCAUGUCA [Same State - Theophylline A #1],24.4 nM,40.4 nM,–,–,35 nM
UCGGGCAGAGCGGCCGCCACUGUUUGGCAUGCGGAUGACGGAACAUGAGGAUCACCCAUGUUGAUUAGGACCGGGCUUGCGGAGA [eefullin],11.6 nM,42.3 nM,25.1 nM,18.9 nM,37 nM
CCUCACAUGAGGAUCACCCAUGUCUUUACACGAGGACCGGUACGGCCGCCACUCGUUCACAAAACAACCAGAAGUGAUGCCUACA [theeternabot_sameState_MS2_Trp_A_14],80.2 nM,183 nM,214 nM,–,–
GGUGGGACUUGUGAUACCAGCCCAAUUCGAAUCGAAUUGCACAUGAGGAUCACCCAUGUCGGCCCUUGGCAGCAUGAGUAUUUAU [Ricerixe],152 nM,149 nM,–,–,313 nM
AGCUCGCAUCCUCUAGCGUCAAAGACGCGUCGAGGACCGGUACGGCCGCCACUCGACGUGAGGAUCACCCACGUCUAAGCGAGCA [TrypAX 10 #SwitchBubble #AlternativeMS2 #MS2Late #CuTurnoff],19.7 nM,31.7 nM,30.6 nM,25.5 nM,295 nM
AUAUAUACAUGAGGAUCACCCAUGUUAUUUCGAGGACCGGUACGGCCGCCACUCGAUAGAGUAGAAGUAUUUUGGGAUAGUUGAU [JR_SSTryptoA_Sub015],19.7 nM,30.7 nM,23.6 nM,18.5 nM,15.6 nM
UUAACGAGCUGAAGGAGCGCUCUUCAUCAACAUGAGGAUCACCCAUGUACACAUAAUAGGGAGCAGGUAGGUCGCAGCGGGAUGG [#24 Same State - Arginine B],14.2 nM,24.8 nM,17.4 nM,16.2 nM,17.2 nM
GGUCACCUAUCCUCAUUGGUGACCCUGGAAGGAGCGAGCGAGAGCUCAGGUAGGUCGCCAGAACAUGAGGAUCACCCAUGUAAUA [(A)''-(M)'-(A)'(Arg1)-(Arg2)-(M1)-(M2)_Design12],43.4 nM,120 nM,111 nM,94.9 nM,70.1 nM
AGCACUGUGACGGCCGCCACUACAUAAUAGGGUGGUCAGGUUCAUAUACAUGAGGAUCACCCAUGUAGGACCGGGUCUCAGUGCA [Omei Trp Exc B A v6],8.68 nM,12.7 nM,12.2 nM,10.6 nM,9.03 nM
AAAAUCCUACUUGAGGAUCACCCAGGUGAAGGAGCGCCCGAAAGGGCAGGUAGGUCGCACCUGAGGAUCACCCUGGUAAACCUAA [ArgEX 8 #DoubleMS2 #OpenEnded],79.1 nM,135 nM,185 nM,140 nM,152 nM
AUCUAUAGAGCGGCCGCCACUGAAUACAUGAGGAUCACCCAUGUAAUGUUAAGGUGGUCCUAGCUCAGGACCGGGCUCUAUAGAU [Tryp B Ex t4],30 nM,60.6 nM,53.3 nM,–,–
UUCUGGUCCCGUGAUACCAGAGACAUGAGGAUCACCCAUGUACAUGAGGAUCACCCAUGUUUCCCUUGGCAGCACUGUAGGGAGC [Exclusion Theophylline B GF 16],79.9 nM,226 nM,–,–,207 nM
GGUUACUCUACGGCCGCCACUGUUAAAUAAUAAACCUGUACAUAAACAUGAGGAUCACCCAUGUACAGGACCGGGUAGUGUAACC [Tryptophan B 8],27.6 nM,41 nM,35 nM,–,–
UAACAUGAGGAUCACCCAUGUUUGAAGAAACGAGGACCGGUACGGCCGCCACUCGACGAGUGGAUGAAUAGUGGGCUUGUGUGCU [Same State Trp A GF10],11 nM,16 nM,13.1 nM,–,–
GAGGAAACUCACAUGAGGAUCACCCAUGUACGAGGACCGGUACGGCCGCCACUCGAAACCAUGGGCGGUAGUACAUGGAAACAUG [Design 2 MOD],34 nM,65.8 nM,75.5 nM,–,–
AAUCUGUCGGGUGAUACCAGCCUCGGCGCAUCUCACGCUGAACAUGAGGAUCACCCAUGUGGCCCUUGGCAGCACAUGACAAAUC [Tivece],202 nM,709 nM,–,–,620 nM
